Numbering of substitutions follows the chain as printed. In names and notes the source's numbering stands.
Tests used:
Purβ I-II-III = molecular target: T1, Purβ I-II-III (Mus musculus, UniProt O35295); experiment: ssDNA-binding ELISA
T1 sequence (O35295 41-303): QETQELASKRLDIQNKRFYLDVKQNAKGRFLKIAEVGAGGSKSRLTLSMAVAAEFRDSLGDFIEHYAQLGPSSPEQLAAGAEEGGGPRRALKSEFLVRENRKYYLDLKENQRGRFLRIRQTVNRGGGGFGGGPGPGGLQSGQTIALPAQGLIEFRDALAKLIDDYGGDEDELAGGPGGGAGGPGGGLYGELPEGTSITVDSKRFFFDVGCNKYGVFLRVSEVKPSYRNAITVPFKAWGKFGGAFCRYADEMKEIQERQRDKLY

Purβ III = molecular target: T2, Purβ III (Mus musculus, UniProt O35295); experiment: ssDNA-binding ELISA
T2 sequence (O35295 209-303): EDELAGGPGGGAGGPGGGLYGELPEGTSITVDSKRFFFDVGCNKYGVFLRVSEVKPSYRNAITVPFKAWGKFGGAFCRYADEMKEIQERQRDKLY

[1] = molecular target: T3, Purβ FL (full-length NHis-Purβ) (Mus musculus, UniProt O35295); experiment: ssDNA-binding ELISA
T3 sequence (O35295 1-324): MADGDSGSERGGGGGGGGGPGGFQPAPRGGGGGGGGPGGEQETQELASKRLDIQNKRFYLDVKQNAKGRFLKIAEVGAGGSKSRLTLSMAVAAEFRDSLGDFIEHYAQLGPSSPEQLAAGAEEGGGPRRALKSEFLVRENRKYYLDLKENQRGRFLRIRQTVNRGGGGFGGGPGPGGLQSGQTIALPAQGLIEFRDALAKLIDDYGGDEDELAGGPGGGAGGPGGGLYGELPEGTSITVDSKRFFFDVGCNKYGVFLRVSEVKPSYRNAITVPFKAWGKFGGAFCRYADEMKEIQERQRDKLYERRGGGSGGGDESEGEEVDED

SEC = molecular target: the molecule itself; experiment: SEC
Purβ R159A/R267A = molecular target: T4, Purβ R159A/R267A (Mus musculus, UniProt O35295 1-324, R159A;R267A); experiment: ELISA
T4 sequence: T3 sequence (O35295 1-324) with R159A, R267A

Purβ R267A = molecular target: T5, Purβ R267A (Mus musculus, UniProt O35295 1-324, R267A); experiment: ELISA
T5 sequence: T3 sequence (O35295 1-324) with R267A

[2] = molecular target: T6, Purβ FL (wild-type NHis-Purβ) (Mus musculus, UniProt O35295 1-324); experiment: ELISA
T6 sequence: T3 sequence (O35295 1-324)

In the case of `C[C@H](CCC(=O)O)[C@H]1CC[C@H]2[C@@H]3CC[C@@H]4C[C@H](O)CC[C@]4(C)[C@H]3C[C@H](O)[C@]12C` [sodium deoxycholate], the IC50 (Purβ I-II-III) is reported as 2030 µM, the IC50 (Purβ III) is reported as 1450 µM and the IC50 [1] is reported as 2360 µM.

B1: Purβ K82A/R159A/R267A triple point mutant, N-terminally hexahistidine-tagged (natural protein, mouse, UniProt O35295 1-324, looked up)
chain: T3 sequence (O35295 1-324) with K82A, R159A, R267A
B1 was tested, and the “stoichiometry N” value (SEC) was 2.

B2: Purβ R159A/R267A double point mutant, N-terminally hexahistidine-tagged (natural protein, mouse, UniProt O35295 1-324, looked up)
chain: T3 sequence (O35295 1-324) with R159A, R267A
In the case of B2, the “stoichiometry N” value (SEC) is reported as 2.

B3: Purβ R267A single point mutant, N-terminally hexahistidine-tagged (natural protein, mouse, UniProt O35295 1-324, looked up)
chain: T3 sequence (O35295 1-324) with R267A
B3 was tested, and the “stoichiometry N” value (SEC) was 2.

Molecule GGGAGCAGAACAGAGGAATGCAGTGGAAGAGA (ssDNA) [PE32-bF] has a Kd (Purβ R159A/R267A) of 0.0006 ± 4e-05 µM, a Kd (Purβ R267A) of 0.00057 ± 4e-05 µM and a Kd [2] of 0.00017 ± 1e-05 µM.

— PMC6368843 (Biochemistry, 2016)
